Paper PMC3526290

Tested on: H3/H4 (FM label on H4 C71) (Xenopus laevis)
Assay: EMSA
Conditions: 0.2 uM H3/H4, 0.4 uM DNA, no chaperone, disome and tetrasome, EMSA deposition: 10 mM Tris, 150 mM NaCl, 0.5 mM TCEP, pH 8.0, on ice, 0.2x TBE native gel, FRET: 10 mM Tris pH 7.5, 150 mM KCl, 2 mM MgCl, 1% glycerol

## 80 bp 601 DNA
  binding signal: 44 % tetrasomes
